Source: paper PMC10783494, “A conserved protein inhibitor brings under check the activity of RNase E in cyanobacteria”
Blank lines part the entries; values can stand above or below the molecule they belong to.

Legend:
[1] = biological target: RneN412, the catalytic region of Anabaena RNase E (1-412 aa) (Anabaena PCC 7120)
[2] = biological target: RneN396, the catalytic core of Anabaena RNase E (1-396 aa) (Anabaena PCC 7120); experiment: SPR; Biacore, 25°C, PBS pH 7.4; RneN396 (2 uM) immobilized on a streptavidin-coated sensor chip; RebA injected at 0-1000 nM; steady-state affinity
[3] = biological target: RneN396, the catalytic core of Anabaena RNase E (1-396 aa) (Anabaena PCC 7120); experiment: native gel or EMSA; RneN396, RebA and their mixture incubated for 30 min and separated on a native gel; the band of the complex excised and analysed by SDS-PAGE beside defined molar ratios, bands quantified with ImageJ
[4] = biological target: RebA (Anabaena PCC 7120, UniProt A0ABR7ZDZ7 1-423); experiment: EMSA; RebA up to 50-fold molar excess; 2 mM EDTA; 20 mM Tris-HCl pH 8.0, 200 mM NaCl, 0.1 mM DTT, 2 mM EDTA, 5% glycerol, 1 mg/ml BSA; 30 min at 30 C; 5% native PAGE at 4 C; settings: protein: recombinant; tags: N-terminal Strep tag; label: 3' FAM
[5] = biological target: T1, RneN396, the catalytic core of Anabaena RNase E (1-396 aa) (Anabaena PCC 7120); experiment: BLI
T1 chain: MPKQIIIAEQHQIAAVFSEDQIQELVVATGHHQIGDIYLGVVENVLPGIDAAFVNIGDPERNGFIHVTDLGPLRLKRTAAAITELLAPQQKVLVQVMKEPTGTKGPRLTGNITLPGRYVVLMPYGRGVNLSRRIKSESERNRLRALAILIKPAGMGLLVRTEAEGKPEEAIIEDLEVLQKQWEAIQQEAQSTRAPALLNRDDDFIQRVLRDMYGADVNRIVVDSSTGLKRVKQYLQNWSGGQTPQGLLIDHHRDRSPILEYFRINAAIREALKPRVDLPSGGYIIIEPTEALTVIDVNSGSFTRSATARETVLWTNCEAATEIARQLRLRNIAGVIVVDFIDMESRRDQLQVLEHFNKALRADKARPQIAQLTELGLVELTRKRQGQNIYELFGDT

cleavage of 5′ p-LU13-FAM by RneN412 (0.4 nM) with increasing RebA: ratio of RebA to RneN412 for half-inhibition (RebA:RneN412 ratio) [1]: 1
cleavage of 5′ p-LU13-FAM by RneN412 with increasing RebA (up to a RebA:RneN412 ratio of 4:1): drop of activity [1]: 90%
Kd [2]: 10.3 nM
stoichiometry N [3]: 1 RneN396:RebA
Molecule: full-length RebA bearing an N-terminal Strep tag (recombinant) (natural protein)

Molecule: GAGACAGUAUUUG (ssRNA, 5' monophosphate) [5' p-LU13-FAM]
binding result [4]: no binding

koff [5]: 0.000112 s⁻¹
B1: full-length RebA bearing an N-terminal Strep tag (recombinant) (natural protein)
chain: MRKLTNSDKQEILKLYRETAETTSTLAERYDVSNSTISRLLKSTLPEDEYEFLVSLKRAARTPEGRAQVSYDQIPFVGQPEEAPVISTQKVELPEPITKPEPSRVEDKPTPVIRKGRQAKPAPLPEENPQPLLAEEEKPTPVIRRGRQAKPAPLPEEEKPTPVIRKARQAKPEFFAEEEEKPTPVIRKARQAKPEFFAEEEEKPTPVIRRVRRRSASEEEDREPIARQLEIPVGKPQEIISVSSPSLEDETAEVTPMGYAPPQVIAEMLGEDLLDESEDLDDLEEDLDEDLDEEDYEDEEDDLEEARPLVTRRRFGDAAVQVLPLSVASLPKTCYLVIDRSSELITRPLKDFGDLGQIPSLETQQRTLPIFDNHRVAKRFSTKRDRVIKVPDSRMLHKARTHLQAKGITRLLIDGQVYSLSLV
